Reference: the nanobody polyreactivity screen of Harvey et al. (2022)

Assay: yeast display, Sf9 membrane polyspecificity reagent, FACS + sequencing; frameworks hold sequencing errors
Method in brief: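 Using colony PCR, genes from sorted yeast display clones were amplified, then sequenced on MiSeq at 2 × 250 and filtered by CDR length. The clones had been stained with 10% biotinylated, detergent-solubilized Sf9 membrane reagent for 1 hour at 4 °C and sorted by FACS into low and high (top ~1%) gates on anti-HA and streptavidin fluorescence. Polyreactivity labels come from the gate of origin.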

Sequence	polyreactivity (PSR sort gate)
QVQLVESGGGLVQAGGSHRLSCAASGITFTGYGMGWYRQAPGKERELVAAIRLRTGSTYFADSVKGRFTISRDNAKNTVYLQMNSLKPEDTAVYYCNKVTVYRFRGVSWGQGTQVTVSS	high polyreactivity
QVQLVESGGGLVQAGGSLRISCAASGSIFYRYAMGWYRQAPGKERELVAAIRTRGGTYYADSVKGRFTISRDNAKNTVYLQMNSLKPEDTAVYYCNAVVPGWTAVDYDYWGQGTQVTVSS	high polyreactivity
QVQLVESGGGLDQAGGSRRLSCAASGSTFSSYAMGWYSQAPGQARELVAVITASGGSTYYADSVKGRFTISRDNPKNTVYLQMNSLKPDDTAVYYCAADPRSGDQYGKGDYWGQGTQVTGSS	low polyreactivity
QVQLVVSGGGLVQAGGSLRLSCAASGYTFQGYAMGWYRQAPGKERELVAGISRSGGRTYYADSVKGRFTISRDNAKNTVYLQMNSLKPEDTAVYYCASTYPGAIRDYWGQGTQVTVSS	high polyreactivity
QVQLVESGGGLVQAGGSLRLSCAASGLTFQWNAMGWYRQATGKERELVAVITDIGDSTYYADSVKGRFTISRDNAKNTVYLQMNSLKPEDTAVYYCAADFGTISIDVYSWMDYWGQGTQVTVSS	low polyreactivity
QVQLVESGGGLVQAGGCLRLSCAASGFIFSKNVMGWYRQAPGTERELVARITRSGGTTNYADSVKGRFTISRDNAKNTVYLQMNSLNPGDTAVYFCAARGYGYTSITWYDYWGQGTQVTVSS	high polyreactivity
QVQLVESGGGLVQAGGSLRLSCAASGSTFRYYAMGWYRQAPGKERELVATISSGGSTNYADSVKGRFTISRDNAKNTVYLQMNSLKPEDTAVYYCAAAYPQFWYWDYNYWGQGTQVTVSS	high polyreactivity
QVQLVESGGGLVQAGGSLRLSCAASGRIFTGYAMGWYRQAPGKERELVAAISRGGSTNYADSVKGRFTISRDNAKNSVYLQMNSLKPEDTAVYYCAAGVHWDRGDYWGQGTQVTVSS	low polyreactivity
QVQLVESGGGLVQAGGSLRLSCAASGSIFWSYAMGWYRQAPGKEREFVAAITVSGGSTYYADSVKGRFTISRDNAKNTVYLQMNSLKPEDTAVFYCAARQLTAGGTDLDYWGQGTKVTVSS	low polyreactivity
QVQLVESGGGLVQAGGSLRLSCAASGRTFLVNAMGWYRQAPGKEREFVAAITSRSGRTNYADSVKGRFTISRDNAKNTVYLEMNSLKPEDTAVYYCNAEGYTVKYWYSRYDYWGQGTQVTVSS	high polyreactivity
QVQLVESGGGLVQAGGSLRLSCAASGLTFILNAMGWYRQAPGKEREFVAAISRSGVRTYYADSVKGRFTISRDNAKNTVYLQMNSLKPEDTAVYYCARVAPASGVRWYYYWGQGTQVTVSS	high polyreactivity
QVQLVESGGGLVQAGGSLRLSCAASGSIIVRYAMGWYRQAPGKERELVAAITSRGGSTYYAVSVKGRFTISRDNAKNTVYLQMNSLKPEDTAVYYCAAYGDQRSTPAIDKYGGQGTQVTVSS	low polyreactivity
QVQLVESRGGLVQAGGSLRLSCAASGFIFGVNAMGWYRQAPGKERELVAAITRNGGSTYYADSVKGRFTISRDYAKNSVYLQMNSLKPEDTAVYYCAKYVRRAPSTFDVDYWGQGTQVTVSS	high polyreactivity
QVQHVESGGGLVQAGGSLRLSCAASGRTFNLKAMGWYRQAPGKERELVAAISWSGGSTYYADSVKGRFTISRDNAKNTVYLQMNSLKPEDTAVYYCAAETYAYLFHTYDYWGQGTQVTVSS	low polyreactivity
QVQLVESGGGLVQAGGSLRLSCADSGSTFPFYAMGWYSHSPGKERELVAAITSGGSTYADYVKGRFTISRDNAKNTVYLQMNSLNPEDTAVYYCAGSWPRWWRFGYWGQGTQVTVSS	low polyreactivity
QVQLVESGGGLVQAGGSLRLSCAASGRTFYYAMGWYRQAPGKERELVAAITSSSSTYYADSVKGRFTISRDNAKNTVYLQLNSVKPEDTAVYYCNAADDPYGSPSYGYDYWGQGTQVTVSS	low polyreactivity
QVQLVESGGRLVQARGSLSLSCAASGRTFLRYAMGWYRQAPGKERELVAAISQRGGSTYYADSVKGRFTISRDNAKNTVYLQMNRLKPEDTAVYYCAADFPSSQAVDSWGQGTQVTVSS	high polyreactivity
QVQLVESGGGLVQAGGSLRLSCAASGRTFRFYAMGWYRQAPGKERELVAAITSGGSTTYADSVKGRFTISRDNAKNTVYLQMNSLKPEDTAVYYCNADRARAYDYWGQGTQVTVSS	high polyreactivity
QVQLVESGGGLVQAGGSLRLSCAASGRTFIKNAMGWYRQAPGKERELVAAINWSGTRTYYADSVKGRFTISRDNAKNTVYLQMNSLKPEDTAVYYCAKVIARYVRYDYWGQGTQVTVSS	high polyreactivity
QVQLVESGGGLVQAGGSLRLSCAASGRTFYWYAMGWYRQAPGKERELVAAITSGGSTNYADSVKGRFTISRDNAKNTVYLQMNSLKPEDTAVYYCAARRSVRRGGDYYWGQGTQVTVSS	high polyreactivity
QVHLVESGGGLVQAGGSLRLICAASGSIYTPNAMGWYRQAPGKETELVAAISSSSDRTYYADSVTGRFTISRDNAKNTFYLQMNSLKPEDTEVYYCNADLRGHGRGTDQYIFDYWGQGTQVTVSS	high polyreactivity
QVQLVESGGGLVQAGGILRLSCAASGSTLGFNAMGWYRLAPGKEREFDAGISASGSSTYYADSVKGRFTISRDNAKNTVYLQMNSLKPEDTAVYYCYAPRGSRRSYRRTEFYYWGQGTQVTVSS	high polyreactivity

Sequence	polyreactivity (PSR sort gate)
QVQLVESGGGLVQAGGSLRLSCAASGSTFNDYAMGWYRQAPGNERELVAGITWRGTSTYYADSVKGRFTISRDNAKNTVYLQMNSLKPEDTAVYYCNADHVYGGYQYDFDYWGQGTQVTVSS	low polyreactivity
QVHLVESGGGLVQAGGSLRLSCAASGRTFPPYAMGGYRQAPGKERELVAAISIVGSTYYADSVKGRFTISRDNAKNTVYLQMNSLKPEDTAVYYCAADVAGYYKLYDYWGQGTQVTVSS	high polyreactivity
QVQLVESGGGLVQAGGSLRLSFAASGRIFGENAMGWYRQAPGKEREFVAVISISDASTYYADSVKGRFTLSRDNAKNTVYLQMNSLKPEDTAVYYWAADLTDFLYVASDYWGQGTQVTVSS	low polyreactivity
QVQLVESGGGLVQAGGSLRLSCAASGSNFLCYTMGWYRQAPGKERELVAAISRTGGSTYYADSVKGRFTISRDNAKNTVYLQRNSLKPEDTAVYYCAASLYSITRARYDYWGQGTQVTVSS	high polyreactivity
QVQLVESGGGLVQAGGSLRLSCAASGSTFANYVMGWYRQAPGKEREVVAAISWTGGSTYYADSVKGRFTISRDNAKNTVYLQMHSLKPEDTAVYYCNAASYAWLWHPKSGLYDYWGQGTQVTVSS	low polyreactivity
QVQLVESGGGLVQAGGSLRLSCAASGSTFYWYAMGWYRQATGKERELVAVITVRGGSTYYADSVKGRFTISRDNAKYTVYLQMNSLKPEDTAVYYCAAEQTSSLYKYWYDYWGQGTQVTVSS	low polyreactivity
QVQLVESGGGLVQAGGSLRLSCAASGFTFWRNTMGWSRQAPGKERELVAAIDRSGSSTYYADSEKGRFTISRDNATNTVYLQMNSLKPEDTAVYYCAAAHTYFTPYGDYWGQGTQVTVSS	low polyreactivity
QVQLVESGGRLVQAGGSLRLLGAASGRIIYYNAMGWYRPAPGKERELVAAISSIGGSTYADSVKGRFTISRDNAKNTVYLQMNSLKPEDTAVYYCAADGFKRLYTQVAHVRYDYWGQGTQVTVSS	low polyreactivity
QVQLVESGGGLVQAGGSLRLSCAASGSIFRYYAMGWYRQAPGKERELVAAISRRGSSTYYADSVKGRFTISRDNAKNTVYLQMNSLNPEDTAVYYCAAGDFKQYDYWGQGTQVTVSS	high polyreactivity
QVQLVESGGGLVQAGGSLRLSCAPSGRTLRGYAMGWYRQAPGKEREFVAAISSRGGSTYYADSVKGRFTISRDNAKNTVYLQMHSLKPEDTAVYYCAALRPLFATSHARDYWGQGTQVTVSS	high polyreactivity
QVQLVESGGGLVQAGGSLRLSCAASGSTIEPNAMGWYRPAPGKERELVAAINYSGGRTYYADSVKGRFTISRDNAKNTVYLQMNSLKPEDTAVYYCAATSIGRYKSRLDYWGQGTQVTVSS	high polyreactivity
QVQLVESGGGLVQPGGSLRLSCAAYRSTFTDYDKGWYRQAPGKERELVAAITSGGSTNYADSVKGRFTISRDNAKNTFYLQLNSLKPEDTAVYYCAAADSDRKYDYWGQGTQVTVSS	low polyreactivity
QVQLVESGGGLVQAGGSLRLSCAASGSIFIIYAMGWYRQAPGKERALVAAISRGGTSTYADSVKGRFTISRDNAKNTVYLQMNSLKPEDTAVYYCNARRSSRTNRYNYWGQGTQVTVSS	high polyreactivity
QVQLVESGGGLVQAGGSLRLSCAASGFTFNKYAMGWYRQAPGKERELVAAISSSGGSTRYADSVKGRFTISRDNAKNTVYLQMNSLKPEDTAVYYCAVYVTRDSGWWLYDYWGQGTQVTVSS	high polyreactivity
QRQLVESGGGLVQAGGSLRLSCAASGIIFQGYAMGWYRQAPGKERELVAAISHHADSTYADSVKGRFTISRDNAKNPVYLQMNSLKPEDTAVYYCNADTPVRSDYWGQGTQVTVSS	low polyreactivity
QVQLVESGGGLVQAGGSLRLSCAASGLIFTYYTMGWYRQEPGTERELVATINWNTSSTYYADSVKGRFTISRDNAKNTVYLQMNSLKPEDTAVYYCNKRIAESDTTVTYDYWGQGTQVTVSS	low polyreactivity
QVQLVESGGGLVQAGGSLRLSCAASGSILQRNAMGWYRHARGTERELVAAISWSGDNTYYADSVKGRFTISRDNAKNTVYLQMISLKPEDTAVYYCATDDDIYFQEYDYWGQGTQVTVSA	low polyreactivity
QVQLVESGGGLVQAGGSLRLSCAASGSTFHYYAMGWYRQEPGKERELVAAISGSGSSTYYADSVKGRFTISRDNAKNTVYLQMNSLKPEDTAVYYCNARGHYPRARFGYKSGSDRYWGQGTQVTVSS	high polyreactivity
QVQLVESGGGLVQAGGSLRLSCAASGITLYGNVMGWYRQAPGKERELVAAISGGSTFYADSVKGRFTISRDNAKNTVYLQMNSLKPEDTAVYYCSAEGYGYGSNVPYYYWGQGTQVTVSS	low polyreactivity
QVQLQEIGGGLVQAGGSLRLSCAASGYISLAKTIGLSRQAPGKEREFVASIALGSSTYYTDSVKGSFTISRDNAKTTVYLQMNRLKPEDTAVYYCAARVGASYAHDYGGQGTQVTVSS	low polyreactivity
QVQLVESGGGLVQAGGSLRLSCAASGRILRYYAMGWYRQAPGKERELVASITSGGSTYYADSVKGRFTISRDNAKNTVSLQMNSLKPEDTAVYYCAARNSYRVDLSYYAYDYWGQGTQVTVSS	high polyreactivity
